Laboratory results published in patent US12522842B2, “Glutamine synthetase mutant having glufosinate resistance and application thereof and cultivation method therefor” (GEVOTO LLC, priority 2019, dated 2026).

B1: OsGS_WT: wild-type rice glutamine synthetase, SEQ ID NO. 1, negative control (protein, listed as Oryza sativa)
chain: MASLTDLVNLNLSDTTEKIIAEYIWIGGSGMDLRSKARTLSGPVTDPSKLPKWNYDGSSTGQAPGEDSEVILYPQAIFKDPFRKGNNILVMCDCYTPAGEPIPTNKRHNAAKIFSSPEVASEEPWYGIEQEYTLLQKDINWPLGWPVGGFPGPQGPYYCGIGADKSFGRDIVDSHYKACLYAGINISGINGEVMPGQWEFQVGPSVGISAGDQVWVARYILERITEIAGVVVSFDPKPIPGDWNGAGAHTNYSTKSMRNDGGYEIIKSAIEKLKLRHKEHISAYGEGNERRLTGRHETADINTFSWGVANRGASVRVGRETEQNGKGYFEDRRPASNMDPYIVTSMIAETTIIWKP
B2: OsI (protein)
chain: MASLTDLVNLNLSDTTEKIIAEYIWIGGSGMDLRSKARTLSGPVTDPSKLPKWNYDGSITGQAPGEDSEVILYPQAIFKDPFRKGNNILVMCDCYTPAGEPIPTNKRHNAAKIFSSPEVASEEPWYGIEQEYTLLQKDINWPLGWPVGGFPGPQGPYYCGIGADKSFGRDIVDSHYKACLYAGINISGINGEVMPGQWEFQVGPSVGISAGDQVWVARYILERITEIAGVVVSFDPKPIPGDWNGAGAHTNYSTKSMRNDGGYEIIKSAIEKLKLRHKEHISAYGEGNERRLTGRHETADINTFSWGVANRGASVRVGRETEQNGKGYFEDRRPASNMDPYIVTSMIAETTIIWKP
modifications: OsI
B3: OsY: rice GS mutant, S59Y versus SEQ ID NO. 1 (SEQ ID NO. 19) (protein)
chain: MASLTDLVNLNLSDTTEKIIAEYIWIGGSGMDLRSKARTLSGPVTDPSKLPKWNYDGSYTGQAPGEDSEVILYPQAIFKDPFRKGNNILVMCDCYTPAGEPIPTNKRHNAAKIFSSPEVASEEPWYGIEQEYTLLQKDINWPLGWPVGGFPGPQGPYYCGIGADKSFGRDIVDSHYKACLYAGINISGINGEVMPGQWEFQVGPSVGISAGDQVWVARYILERITEIAGVVVSFDPKPIPGDWNGAGAHTNYSTKSMRNDGGYEIIKSAIEKLKLRHKEHISAYGEGNERRLTGRHETADINTFSWGVANRGASVRVGRETEQNGKGYFEDRRPASNMDPYIVTSMIAETTIIWKP
modifications: OsY
B4: OsG (protein)
chain: MASLTDLVNLNLSDTTEKIIAEYIWIGGSGMDLRSKARTLSGPVTDPSKLPKWNYDGSGTGQAPGEDSEVILYPQAIFKDPFRKGNNILVMCDCYTPAGEPIPTNKRHNAAKIFSSPEVASEEPWYGIEQEYTLLQKDINWPLGWPVGGFPGPQGPYYCGIGADKSFGRDIVDSHYKACLYAGINISGINGEVMPGQWEFQVGPSVGISAGDQVWVARYILERITEIAGVVVSFDPKPIPGDWNGAGAHTNYSTKSMRNDGGYEIIKSAIEKLKLRHKEHISAYGEGNERRLTGRHETADINTFSWGVANRGASVRVGRETEQNGKGYFEDRRPASNMDPYIVTSMIAETTIIWKP
modifications: OsG
B5: OsH: rice GS mutant, S59H versus SEQ ID NO. 1 (SEQ ID NO. 13) (protein)
chain: MASLTDLVNLNLSDTTEKIIAEYIWIGGSGMDLRSKARTLSGPVTDPSKLPKWNYDGSHTGQAPGEDSEVILYPQAIFKDPFRKGNNILVMCDCYTPAGEPIPTNKRHNAAKIFSSPEVASEEPWYGIEQEYTLLQKDINWPLGWPVGGFPGPQGPYYCGIGADKSFGRDIVDSHYKACLYAGINISGINGEVMPGQWEFQVGPSVGISAGDQVWVARYILERITEIAGVVVSFDPKPIPGDWNGAGAHTNYSTKSMRNDGGYEIIKSAIEKLKLRHKEHISAYGEGNERRLTGRHETADINTFSWGVANRGASVRVGRETEQNGKGYFEDRRPASNMDPYIVTSMIAETTIIWKP
modifications: OsH
B6: TaGR (protein)
chain: MALLTDLLNLDLTDSTEKIIAEYIWIGGSGMDLRSKARTLPGPVTDPSKLPKWNYDGSGTGQAPGEDSEVILYPQAIFKDPFRKGNNILVMCDCYTPAGVPIPTNKRYNAAKIFSNPDVAKEEPWYGIEQEYTLLQKDINWPLGWPVGGFPGPQGPYYCSIGADKSFGRDIVDSHYKACLFAGVNISGINGEVMPGQWEFQVGPTVGISAGDQVWVARYLLERITEIAGVVVTFDPKPIPGDWNGAGAHTNYSTESMRKDGGFKVIVDAVEKLKLKHKEHIAAYGEGNERRLTGKRETADINTFSWGVANRGASVRVGRETEQNGKGYFEDRRPASNMDPYVVTSMIAETTILWKP
modifications: TaGR
B7: GmGS_WT: wild-type soybean glutamine synthetase, SEQ ID NO. 3, control (protein)
chain: MSLLSDLINLNLSDTTEKVIAEYIWIGGSGMDLRSKARTLPGPVSDPSKLPKWNYDGSSTGQAPGEDSEVIIYPQAIFRDPFRRGNNILVICDTYTPAGEPIPTNKRHDAAKVFSHPDVVAEETWYGIEQEYTLLQKDIQWPLGWPVGGFPGPQGPYYCGVGADKAFGRDIVDAHYKACLYAGINISGINGEVMPGQWEFQVGPSVGISAGDEVWAARYILERITEIAGVVVSFDPKPIQGDWNGAGAHTNYSTKSMRNDGGYEVIKTAIEKLGKRHKEHIAAYGEGNERRLTGRHETADINTFLWGVANRGASVRVGRDTEKAGKGYFEDRRPASNMDPYVVTSMIADTTILWKP
modifications: Glycine max
notes: 3, control
B8: GmGR (protein)
chain: MSLLSDLINLNLSDTTEKVIAEYIWIGGSGMDLRSKARTLPGPVSDPSKLPKWNYDGSGTGQAPGEDSEVIIYPQAIFRDPFRRGNNILVICDTYTPAGEPIPTNKRHDAAKVFSHPDVVAEETWYGIEQEYTLLQKDIQWPLGWPVGGFPGPQGPYYCGVGADKAFGRDIVDAHYKACLYAGINISGINGEVMPGQWEFQVGPSVGISAGDEVWAARYILERITEIAGVVVSFDPKPIQGDWNGAGAHTNYSTKSMRNDGGYEVIKTAIEKLGKRHKEHIAAYGEGNERRLTGRRETADINTFLWGVANRGASVRVGRDTEKAGKGYFEDRRPASNMDPYVVTSMIADTTILWKP
modifications: GmGR

How the values were obtained:
[1] = tested on: glutamine synthetase-deficient Escherichia coli; experiment: Growth of glutamine synthetase-deficient E. coli transformed with GS mutants in M9 medium containing glufosinate; assay type: cell-based; settings: for growth of transformed GS-deficient E. coli (normal GS enzymatic activity): medium containing 0 mM glufosinate
Source text: According to the sequences of the nucleic acid molecules provided in Example 4, the nucleic acid sequences encoding rice GS mutants OsA, OsC, OsD, OsE, OsF, OsG, OsH, OsI, OsK, OsP, OST, OsV, and OsY were synthesized using chemical synthesis method. Restriction digestion sites (Pac1 and Sbf1) were introduced at both ends thereof, and after restriction digestion, they were linked under the action of ligase to an expression vector (such as pADV7 vector, whose structure is shown in FIG. 4) that was subjected to the same restriction digestion treatment. Then, glutamine synthetase-deficient Escherichia coli was transformed with the resultant. After verification, positive clones were picked up and inoculated in M9 medium containing different concentrations of glufosinate to grow, and the growth status of defective Escherichia coli was observed.
With wild-type rice GS (its amino acid sequence shown in SEQ ID NO. 1 and its encoding gene shown in SEQ ID NO. 4) as a negative control, the glufosinate resistance for the GS mutant OsA (S59A, wherein the amino acid S at site 59 of the rice GS is mutated into A), OsC (S59C), OsD (S59D), OsE (S59E), OsF (S59F), OsG (S59G), OsH (S59H), OsI (S591), OsK (S59K), OsP (S59P), OsT (S59T), OsV (S59V), OsY (S59Y) was detected.
With reference to the detection method of Experimental Example 1, glufosinate resistance of the rice GS mutant OsGR (S59G and H296R, the amino acid S at site 59 of rice GS is mutated into G and the amino acid H at site 296 is mutated into R), the wheat GS mutant TaGR (S59G and H296R, the amino acid S at site 59 of wheat GS is mutated into G and the amino acid H at site 296 is mutated into R), the soybean GS mutant GmGR (S59G and H296R, the amino acid S at site 59 of soybean GS is mutated into G and the amino acid H at site 296 is mutated into R) provided in Example 2 was verified.
With reference to Experimental example 1, the glufosinate resistance of rice GS mutants OA, OD, OE, OG, OI, OK, OM, OP, OQ, OR, OS, OT, and OV provided in Example 3 was detected according to the following method.
With wild-type rice GS as a negative control, the glufosinate resistance of GS mutants OA (H296A, amino acid H at site 296 of rice GS is mutated into A), OD (H296D), OE (H296E), OG (H296G), OI (H2961), OK (H296K), OM (H296M), OP (H296P), OQ (H296Q), OR (H296R), OS (H296S), OT (H296T), OV (H296V) was detected.

[2] = target: rice GS (glutamine synthetase); experiment: Enzymatic activity of purified rice GS: kinetic parameters and glufosinate IC50; assay type: biochemical, rice (Oryza sativa); settings: inhibition of rice GS by glufosinate
Source text: OsC, OsF, OsG, OsH, OsP, and OsY provided in Example 1, OR provided in Example 3, and rice GS mutant OsGR and wheat GS mutant TaGR provided in Example 2 were detected for their enzymatic kinetic parameter, and enzymatic kinetic parameter in the presence of glufosinate, using wild-type rice GS OsGS_WT and wild-type wheat GS TaGS_WT as controls according to the following method.
The nucleic acid sequences encoding the above mutants were each cloned into a prokaryotic expression vector pET32a, and the clone was verified by sequencing.
The mutant enzyme protein was purified with 6His by a standard method, and its concentration was determined with a protein concentration assay kit with Bradford method. The protein was stored in a protein storage solution.
ELIASA (Detielab, HBS-1096A), glufosinate, substrate sodium L-glutamate (CAS: 6106-04-3).
(1) The composition of a reaction solution for determination of enzymatic activity of glutamine synthetase were as follows: 100 mM Tris-HCl (pH 7.5), 10 mM ATP, 20 mM sodium L-glutamate, 30 mM hydroxylamine, 20 mM MgCl2. 100 μl of the reaction solution after mixed thoroughly was preheated at 35° C. for 5 min, and 10 μl of mutant protein solution (protein concentration of 200 μg/ml) was added to start the reaction. After reaction at 35° C. for 30 min, 110 μl of color developing solution (55 g/L FeCl3·6H2O, 20 g/L trichloroacetic acid, 2.1% concentrated hydrochloric acid) was added to terminate the reaction. The absorbance at 540 nm was measured.

[3] = medium containing 10 mM glufosinate
[4] = medium with 50 mM/100 mM glufosinate
[5] = media containing 2 mM, 5 mM, 10 mM, and 20 mM glufosinate

Molecule	growth of transformed E. coli (glufosinate resistance) ([1]; media containing 10 mM, 20 mM and 300 mM glufosinate)	growth of transformed GS-deficient E. coli (normal GS enzymatic activity) [1]	growth of transformed E. coli (glufosinate resistance) [1, 3]	IC50 ([2]; read-out: glufosinate resistance parameter IC50) [µM]	growth of transformed E. coli (glufosinate resistance) [1, 4]	glufosinate resistance parameter IC50 [2]	growth of transformed E. coli (glufosinate resistance) [1, 5]
B1	could hardly grow	could normally grow	could hardly grow	700			
B2		could normally grow	significantly superior to that of the negative control		significantly grew		
B3		could normally grow	significantly superior to that of the negative control		significantly grew	much higher than those of the wild-type controls	
B4		could normally grow	significantly superior to that of the negative control		significantly grew		
B5		could normally grow	significantly superior to that of the negative control		significantly grew	much higher than those of the wild-type controls	
B6		could normally grow					significantly grew
B7		could normally grow					could hardly grow
B8		could normally grow					significantly grew
